Reference: patent US20250011434A1, “ASYMMETRIC BISPECIFIC ANTIBODY (UMG2/CD1A-CD3E) FOR THE IMMUNOLOGICAL TREATMENT OF CORTICAL-DERIVED CD1A-EXPRESSING T-CELL ACUTE LYMPHOBLASTIC LEUKEMIAS (T-ALL)” (UNIVERSITA' DEGLI STUDI MAGNA GRAECIA DI CATANZARO, published 2025)

Target: CD1a (Homo sapiens (Human), UniProt P06126)
Assay: titration experiments on cortical, CD1a-expressing T-ALL cell lines (apparent Kd, average)

B1: asymmetric bispecific antibody UMG2/CD1a-CD3ε BTCE (bispecific antibody)
heavy 1: not shown
heavy 2: not shown
light: DIQMTQTTSSLSASLGDRVTISCSASQDISNYLDWYQQKPDGTVRLLIYYTSSLHSGVPSRFSGSGSGTAFSLTIINLEPEDVATYYCHQYSNLPYTFGGGTKLEIKRTVAAPSVFIFPPSDEQLKSGTASVVCLLNNFYPREAKVQWKVDNALQSGNSQESVTEQDSKDSTYSLSSTLTLSKADYEKHKVYACEVTHQGLSSPVTKSFNRGEC
  Kd: 0.014 µg/mL
